This is an account of results in patent US20140363428A1 (Chugai, published 2014).

First the molecules themselves.
B1: IgG1-F1229 (antibody)
heavy: QVQLQESGPGLVKPSETLSLTCAVSGHSISHDHAWSWVRQPPGEGLEWIGFISYSGITNYNPSLQGRVTISRDNSKNTLYLQMNSLRAEDTAVYYCARSLARTTAMDYWGEGTLVTVSSASTKGPSVFPLAPSSKSTSGGTAALGCLVKDYFPEPVTVSWNSGALTSGVHTFPAVLQSSGLYSLSSVVTVPSSSLGTQTYICNVNHKPSNTKVDKKVEPKSCDKTHTCPPCPAPELLGGPSVFLFPPKPKDTLYVSRTPEVTCVVVDVSHEDPEVKFNWYVDGVEVHNAKTKPREEQYNSTYRVVSVLTVLHQDWLNGKEYKCKVSNKALPAPIEKTISKAKGQPREPQVYTLPPSRDELTKNQVSLTCLVKGFYPSDIAVEWESNGQPENNYKTTPPVLDSDGSFFLYSKLTVDKSRWQQGNVFSCSVMHEALHYHVTQKSLSLSP
light: not shown
notes: EU numbering; copies: 2 + 2
B2: IgG1-F1247 (antibody)
heavy: B1 heavy with L237R, S241K, T252V, V255I, T258E, Q440R, S442E
light: not shown
notes: EU numbering; copies: 2 + 2
B3: IgG1-F1260 (antibody)
heavy: B1 heavy with L237R, S241K, V255I, T309Q, Q313H, Q440R, S442E
light: not shown
notes: EU numbering; copies: 2 + 2
B4: IgG1-F1249 (antibody)
heavy: B1 heavy with L237R, S241K, V255I, T258Q, Q440R, S442E
light: not shown
notes: EU numbering; copies: 2 + 2
B5: IgG1-F1259 (antibody)
heavy: B1 heavy with L237R, S241K, V255I, T309Q, Q313A, Q440R, S442E
light: not shown
notes: EU numbering; copies: 2 + 2
B6: IgG1-F1244 (antibody)
heavy: B1 heavy with L237R, S241K, V255I, T258E, Q440R, S442E
light: not shown
notes: EU numbering; copies: 2 + 2
B7: IgG1-F1232 (antibody)
heavy: B1 heavy with V255I, Q440K, S442D
light: not shown
notes: EU numbering; copies: 2 + 2
B8: IgG1-F1257 (antibody)
heavy: B1 heavy with L237R, S241K, V255I, T309A, Q313A, Q440R, S442E
light: not shown
notes: EU numbering; copies: 2 + 2
B9: IgG1-F1250 (antibody)
heavy: B1 heavy with L237R, S241K, V255I, S256T, T258Q, Q440R, S442E
light: not shown
notes: EU numbering; copies: 2 + 2
B10: IgG1-F1256 (antibody)
heavy: B1 heavy with L237R, S241K, V255I, Q313H, Q440R, S442E
light: not shown
notes: EU numbering; copies: 2 + 2
B11: IgG1-F1251 (antibody)
heavy: B1 heavy with L237R, S241K, T252V, V255I, T258Q, Q440R, S442E
light: not shown
notes: EU numbering; copies: 2 + 2
B12: IgG1-F1253 (antibody)
heavy: B1 heavy with L237R, S241K, V255I, T309A, Q440R, S442E
light: not shown
notes: EU numbering; copies: 2 + 2
B13: IgG1-F1243 (antibody)
heavy: B1 heavy with L237R, S241K, V255I, S256T, Q440R, S442E
light: not shown
notes: EU numbering; copies: 2 + 2
B14: IgG1-F1231 (antibody)
heavy: B1 heavy with V255I, Q440K, S442E
light: not shown
notes: EU numbering; copies: 2 + 2
B15: IgG1-F1255 (antibody)
heavy: B1 heavy with L237R, S241K, V255I, Q313A, Q440R, S442E
light: not shown
notes: EU numbering; copies: 2 + 2
B16: IgG1-F1246 (antibody)
heavy: B1 heavy with L237R, S241K, T252V, V255I, S256T, Q440R, S442E
light: not shown
notes: EU numbering; copies: 2 + 2
B17: IgG1-F1254 (antibody)
heavy: B1 heavy with L237R, S241K, V255I, T309Q, Q440R, S442E
light: not shown
notes: EU numbering; copies: 2 + 2
B18: IgG1-F1230 (antibody)
heavy: B1 heavy with V255I, Q440R, S442D
light: not shown
notes: EU numbering; copies: 2 + 2
B19: IgG1-F1252 (antibody)
heavy: B1 heavy with L237R, S241K, T252V, V255I, S256T, T258Q, Q440R, S442E
light: not shown
notes: EU numbering; copies: 2 + 2
B20: IgG1-F1258 (antibody)
heavy: B1 heavy with L237R, S241K, V255I, T309A, Q313H, Q440R, S442E
light: not shown
notes: EU numbering; copies: 2 + 2

For orientation: Kd means the constant that tells how readily two partners part at equilibrium. A high value points to a looser complex.

Changes are numbered by the printed parent chain.

For the experiment, the target named is T1, soluble human FcRn (human, UniProt P55899 24-297; P61769 21-119).
T1 construct: Heterodimer of FcRn alpha chain and beta2-microglobulin; also called hFcRn
T1 sequence (P55899 24-297 limits assumed, chain 1 of 2): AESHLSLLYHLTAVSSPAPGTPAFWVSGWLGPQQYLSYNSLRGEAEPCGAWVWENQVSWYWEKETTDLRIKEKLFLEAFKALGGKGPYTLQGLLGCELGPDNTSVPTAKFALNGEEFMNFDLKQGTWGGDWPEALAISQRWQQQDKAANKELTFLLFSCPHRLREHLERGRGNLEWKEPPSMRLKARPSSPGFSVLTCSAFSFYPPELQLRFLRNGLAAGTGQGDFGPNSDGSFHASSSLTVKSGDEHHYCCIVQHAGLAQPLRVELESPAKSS
T1 sequence (P61769 21-119 limits assumed, chain 2 of 2): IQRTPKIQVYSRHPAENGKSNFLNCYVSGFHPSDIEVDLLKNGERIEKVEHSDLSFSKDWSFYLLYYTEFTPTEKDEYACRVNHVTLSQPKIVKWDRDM
The experiment in a line: SPR (Biacore T100), antibody captured by protein L, hFcRn as analyte, pH 7.0, 25 C.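 Note: KD calculated from fitted association and dissociation rate constants of the sensorgrams, protein L amine-coupled to the sensor chip, sodium phosphate running buffer with NaCl and Tween20.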 A general note: SPR reads the build-up and loss of mass on a sensor chip optically.
Molecule B1 registered a Kd of 2800 nM.
In turn, B2 came in with a Kd of 150 nM. Against the preceding molecule, the Kd is about 19-fold lower.
Regarding B3, the affinity, expressed as Kd, was 65 nM. This Kd lies about 2.3-fold lower than the previous one.
In turn, B4 had a Kd of 210 nM. This Kd lies about 3.2-fold higher than the previous one.
The figure for B5 is 45 nM.
The figure for B6 is 100 nM; for B7 it is 98 nM.
As to B8, the Kd was 78 nM.
For the molecule B9, the dissociation constant (Kd) stood at 170 nM.
Then B10, with 160 nM; and B11, with 280 nM; and B12, with 110 nM.
As for B13, the Kd worked out at 130 nM. The Kd values of the last two molecules are within 1.5-fold of each other.
For B14, the Kd stood at 97 nM.
On to B15, for which the Kd was determined as 110 nM.
B16 had a Kd of 170 nM.
Molecule B17 registered a Kd of 64 nM.
Then B18, with 110 nM; and B19, with 230 nM.
B20 displayed a Kd of 110 nM.
